Drawing on publication PMC6697681, “The predominance of nucleotidyl activation in bacterial phosphonate biosynthesis” (Nature Communications, 2019), this text covers Km for one protein.

Substrate in this data set: NCCP(=O)(O)O
Put plainly: purified protein. The settings on record: saturating CTP (4 mM), 7 mM MgCl2, room temperature.

For orientation: Km means the concentration of substrate that gives half-maximal velocity.

Source text: coupled pyrophosphate release assay (EnzChek, MESG/PNP), initial rates on Tde-PntC (Tde1415)

B1: Tde-PntC (Tde1415) (Treponema denticola ATCC 35405) (protein)
chain: MIKQAVILAGGLGSRLKDKTKTMPKGFLEIGGTAIVEQSVQKLLAHGIEKIVIGTGHCNEYYDNLAKKYPAIITVKNENYANTGSMGTLEVCASFVNESFLLLESDLIYDSAGLFSLINDERKNLILASGATKSGDEVYLEADEKNCLTGLSKNRDALKNIFGELVGITKLTKSTLDKMCAYAKIHHSDLPKMEYEHALLEAAKTIPVAIKRIEYFVWREIDNEDHLEMAVKNIYPHIVENEKLRAVRREVLLNPGPATTTDSVKYAQVSADICPREKAFGDLMQWLCDELKLFALASETNPDEYETVMFGCSGTGADEVMVSSCVPDTGRLLVIDNGSYGARMAKIADIYKIPMDIFKSSTYEPLDLQKLEAEFATKKYTHLACVYHETTTGLLNPLHIICPMAKKYGMVTIVDAVSAYCGMPMDLKSLGIDFMASTSNKNIQGMAGVGFVICNKAELEKTKDYPMRNYYLNLYDQYAYFAKTHQTRFTPPVQTMYALRQAVLETKQETVQKRYERYTACWNILVAAIKKLGLKMLVKEEHQSHFITAILEPETPKYSFEALHDFAAEHSFTIYPGKLGNIDTFRIANIGDIQPEEMRRFTVKLKEYMNGIGVGV
Consider B1, for which the Km is 16 ± 5 µM.
